We go through one variant from paper PMC3355305, “Localized Dimerization and Nucleoid Binding Drive Gradient Formation by the Bacterial Cell Division Inhibitor MipZ” (Molecular Cell, 2012).

First the molecules themselves.
B1: MipZ (wild type), hexahistidine-tagged [Caulobacter crescentus] / itself (parent)
chain: MAETRVIVVGNEKGGAGKSTIAVHLVTALLYGGAKVAVIDLDLRQRTSARFFENRRAWLDNKKIELPEPLALNLSDNDVALAERPEEEQVAGFEAAFARAMAECDFILIDTPGGDSAITRMAHGRADLVVTPMNDSFVDFDMLGTVDPVTLELTKPSLYSLTVWEGRKQRALSGQRQAMDWVVLRNRLATTEARNRKRLEDRLNALAKRVGFRIGPGLRDRVIYRELFPFGLTIADLSPQVRPVPVSLQHLAARQELRALMHSLGLSAYSGETMLAAQ

In the first assay the parent is B1. Briefly: SPR. The following applies: with itself; 3500 RU immobilized protein; 0.5 μM soluble protein; + ATP; parent: 370; read off a plot.
Regarding chain 1 D42A, the response came to 910 RU.

The same assay, now with this note: with itself; 3500 RU immobilized protein; 0.5 μM soluble protein; ATP in the binding phase; wash with buffer lacking protein and nucleotides.
Consider chain 1 D42A, for which the koff (usually a measure of how fast the partners let go of each other) turned out to be 0.00112 s⁻¹.
